In the NTF2 design screens of Basanta et al. (2020) one finds protease stability score data, which are given here for 47 sequences.

This data set is described as follows: protease stability score; higher = more stable; yeast display proteolysis, trypsin and chymotrypsin.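 Also: relative to predicted unfolded state with 0 unfolded-like and 1 meaning tenfold more protease.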
Sequence “DEDHERSEIASKITYKIIETGNEDLFSHFADPNTRLHVNGVDSVGMEDVIKVHRKLWKDLGVDHFILHDQKVDVVDGVAEVRLDTRLRFNGREFETEVRFLVLKFNGRWWIRMIEFRVI” yielded a protease stability score of 0.968.
As for “TEEEEIYERVARLWAEAMLTGDWKTETNLLDPHTRYDYDVDGKHIHLHGREHFKKMLEDLLRHLRFRIRVEEIHVYGEKVEVHGKLDIHVGDKTTHEHTSVQIYVVNGKMKSIRVHSH”, the figure is 1.49; as for “DEDDEDSEEASRRMVETHLTGDEDKQSKMMDPNVKFLFNGVEFHGWELLHKIWTEFGIKHHQLKSVEVRNINGQVRVHVDGVIDVNGVSLKSELNFVAEKVDGRWRVKRIEIHIR”, 1.58; as for “SEDETHFKHMWKLILDTSITGNEELLKTLFDPHYRLSVDGVEFHGREALRYWLDRVDHVEDHRIKSFELQGDKIYMNGESKTQQGDKTHSHDIHIFTKKIDGQWVIHSLHVR”, 1.16.
As for “SEEEEEHEELMRLMESTVRTGDFELFEKLADPNVRINIDGKDVHGREEFLEHWVRRWRDLGVNHLRIEHRRVYNGVIIIKVKILVNGREITLHIEARKVDGRWSVHKVEQH”, the figure is 2.25; as for “DEDEHIERHLFEELIELLRTGDFRRLFELIDPHARFVVDGRDHHGMEYAMRERLRRLEEAGVKHIRIRRKDVINGRLHIHSSVNVNGVEQEERIIIEKVNGRWTITEIVID”, 1.26.
As for “DDRDEVVEVASRLWMEIVETGDEDLFIRLLDPRTRIHIGDKTLHGREQVLDFLREHNRNLGIDRVEVRVERTEIQGEKVVVHSINIFNGKEWHVITIAHKINGRWITKEFHLH”, the figure is 0.834; as for “SEIERESKIFSKIEKHVWETGDEKILSEMADPHARIEIGDKEHHGREEFEKVAHEIVEFFPNMRFRVEHMDVQGNKVDLDTRLHFENHSHRYQVISLKFNGRWLIKSVKIE”, 1.08.
For “REQEELMREYYEIHTHVLKTGNEDALEKLLDPNVRIHIDGKELHGMEAWEILNKRFDHIRHSHIHDFRIIGDKLHIDGRQKGVVDGVEREVHVHIVIEKIDGRWKLKSFYFR”, the protease stability score came to 1.2.
Next, “SEVAEVAREIVEIITKREYTGDEKTLDRMMDPNVRVEIGDWEIIGRDIYQKFVIELRVKDMHVRFKDVRVQGDFAFQDTELRMHGIIDGKDRETSHDTHWVFYKVDGRWLVHSIHIK”: 1.3; “SHVEQESREIFEQIVRNLKTGDEDLLTELLDPNTLHIVNGVEIHGMEIVAKFLLDWRRKVKNIRIHDEEERHIEIYGDKVISHVDMDGIVNGRRVRRENIWIAEKVDGRWVIREVEVR”: 1.94.
As for “SEDDELVTRMFKVWLHDWITGNEEQIHRMVDPDYRLEIGDKDIHGMEASLHWLRKIKNIQFRFHLEHVDVVNGKAKSEGRYIEEFEGVKIDRDVELYLHIVDGRIKSMSIHKR”, the figure is 1.29.
Take “SEEEEETEEVADLHLETLKTGNEDLLEDLLDPNVRVIVNGKHHIGRHFLLKWVTEFGIKHFELKRREIDIQGEKADIHIQGNMYFNGRTVRAHIHQEVTKFDGRWFNHRVEIEFK”: the protease stability score turned out to be 1.84.
“DKDEEDLRHVLHLLSRAFMTGDEDELTKLMDPDVRIYYGDKRLHGREEVTRWIREIRAWVHDSKIRHIRRQGEKIILHGEMDMIFDQGDKEVRTRTEITIHTTKINGRWLLNELELR” had a protease stability score of 2.6.
“SEKDDFLEQLQKLWHEILVTGDEHRLKKLADPDMRFIYGDFESIGREEFLQMMRDMLREIRITHIELRTFDAYDGQLIILTTQHVSIGDKRIELTVHLFWIKVDGKWKLRRLKFE” registered a protease stability score of 1.79.
As for “TEDVRHADEMIERVIESLTTGDEESYKRLLDPDVRVLIGDKRIHGMEAVLEWFRRIDHVQIHDVRVREVEIVNGRADVRMEFDLTHRINGVEHRFKFESEMLLVKIDGQWRLHSDKRI”, the figure is 1.57; as for “DELERILKEQAETIMHFWRTGDEESFNHMADPDYWLRVGDKNVHGREKASEYLRHWLEHIRIHDVKIRDKRVFNGRVFIDMREDGNVDGKRTTRTLHVIIVSIDGKITMVEIRLE”, 0.996; as for “TEEEEEMRKMSELYIRAILTGDEDEYTKLADPDDRVNFNGRKLVGRKEVKEWLRKLRDKFKNITLHHFEIKELRVYNGRIRMIAESEVNIGDKVWRFHLHFIFEKFDGVWVLTEESTE”, 1.64.
As for “HEEEREAHEMLRIIVHAIRTGDEELLMRYLDPDVRMILLVDGVEVHRIGREEASKLISELWHHIRLKDLKVREIDNQGEYSHVRTERDGEVNGKKNTLETELDIIVIDGRVTDVTIRIR”, the figure is 1.1; as for “NEEEETARHAIEEFVRVLMTGDWRTLERLLDPNYRIYQGDKTYIGMEHFLELWVHILDRIKNLRLEIHSYEIQGEKVHIHTILNYDGRDIEYVIIQIKINGRWLLHSLHFL”, 1.24; as for “DEEEEELHRLSRLILHLLLTGDWEKLADLADPHMRFEMVVGDKNEEFHGRERWLKFLRMVREKFKGMRIHLQDERVYGDKNDLDIVLNVNGQRHKVHLHLVVVDGVIKEIKIKVE”, 2.18.
In turn, “DEEKEEYRRAIEDWIKFFITGDFDLLKTLADPNARSEIGNYEFHGMEHISRRIVDIIERFKNMRYSVHSIDFQGDYVILHSYIIYGDKHLHLIVITYKFNGRWRFHSVRVE” showed a protease stability score of 1.26.
Next, “SEEDRSSREAVEIYIWIIETGDEHLMEEFLDPHVRSHQGEFHSHGREVAHVYVKKFKNLKVRVREVRTQGDKVIIISEMRIGDFRLELTIIIWKYNGKWIVQEVDIK”: 1.67; “SEREKHSKELNEHMIQLFETGDEDLLIRMADPHVRVIQGDKEYHGRHWYEKIFHDFVKQAQNARFEIHDVKIQGEKLIIHGKMEWNGKRHEVEWYFDIVDGRIKEEEIRIR”: 0.943.
Next, “SELIKVSRHAMEILVHSWLTGDWERSEELVDPHARTQYGDKHVHGMELFEEIFKEELDRVKGMRLEIIIRRVDLQGNKAEVDGEFRNHVNGVDVRRRMHVELVVVNGVVESTSIRIQ”: 0.453; “SEEDEETEHITRLIFRAMVTGDWKELLDNLDPHTRVDINGRDQHGWEVMREWVERIKNVQLRIRRISVQGDKTRLDTEFRQGDKSVHVEVRITIVDGVVQHIEFKDR”: 1.6; “DEKEEFMKKLSKLFVELWITGNEEIFNKLMDPNTRSDVNGVENIGRDEIIRFWKEWRRRFGIKHIEVEHVHAIGDKIEIHGIQKAENHHTEIHIRVNVVDGRIREVEVRTH”: 2.26.
As for “DTEKYLYDFALRLHIHAHETGNFDQLIKNLDPHYRIDINGQIFHGREWVEREYKRAGIDKFELQHFEVKHEHVQGDFLIMDGKLEGNFNGVRINTRVEIYHEKFDGQWKIREVHHR”, the figure is 0.185; as for “SEEHEIIERMMRLFLNYYFTGDEESIQKNADPDVKLNINGRDIHGRERIAEHLFDEIKHLRWHHLHIHSFIVQGEKARVDTRFDGEVDGVRTIFETEIILVVVNGRMKSIEVHRR”, 1.28; as for “TEEREHDHRIFNLFLHWWMTGNEEEIHKYIDPNVRMRLDVNGVEIRDVGREMVMEMLRILYEFLGIDVSRIHSHDTQGDKVVLHGRNHVNGRDIEVHIEWKVINGKLKEVRIEIRER”, 1.57.
In the case of “DTDAVRRALKFIDAMQDGDPDKARELMDPNARVNIGDKEYHGMTSFVKDLKRLRDEIRVQYNIRDYNAQGEKIHVTVDVVFEHNGRPVDERFNVTIDIQGDKIKQVTAHRTK”, the protease stability score amounted to 1.5.
As for “DELDDITEHLLHRFVDSLITGDEDLLEKYADPNAKLIIEIGDKRIERHGMHRFYELLLRFKNVKLDVKEIHVQGDKATIESTLQYGDKKHDTRLEVEFYDGRLKIIRWEIR”, the figure is 2.25; as for “SEEEKILDDILKLFLDDVRTGNEDSLHRLADPHVRQDYNGVELHGMELVVHWLVELRVEDWRHKDSDSAENRVHLNGIVDGNINGKKQRREIILVIRKVDGRWFLEHNIVI”, 1.23.
As for “SEEEDEIRKMLEEVLKNWRTGNEERIYELADPNTRVEIDGREHHGRHVVAHLIKEWRIHDFILRRVDVQGNKVIIHGELEGEFDGKRTNLHTNLVLVKIDGRWVIESLHYV”, the figure is 1.41.
With “SEEDHHTERIVEEFIEAERTGDEDHLLELIDPHVRVDVNGVELHGREELYKFWRDWLTKFKNARIEIRHVNNQGDKSTVLVLRRINGVDLETHVKWVFVNGKLKSITIRLN”, the protease stability score was 1.49.
For “SEKEEDITRFITMWARYLVTGDEDRSRELLDPSVKMHIGEKNLIGREKLLEFVHRMWRRVDHIHIHFHTIDIQGDKLKVDFEIELRQGDKSDSIRTSMIVDKVDGRWILHKITME”, the protease stability score is 1.74.
Take “SEEEHVTDLALELWIRTHNTGNWHLLKRLLDPNTRVQVGNKIYHGMELISKEIFRKLLEMGFETHIEVEDSEYFEGHVRFRITIRLVVGDKEIILDTELLMIKFNGRWFITEIRIE”: the protease stability score is 0.686.
As for “DEEDHESHEMMRQHFEAFVTGDFESFTRYADPHVRLIVGDKHFHGRDLIVHVFLRLWHELGVKVSRIKEIHSVGDKMHLDGELHVGDKRFRLLVEARKFDGRWFNKRVELVIL”, the figure is 1.48; as for “DEIERLLKEVMRIFYENFQTGDEESLKELADPNVRYQIGDKSDHGREHLWRVQHEVHRRMGIKHTHLLIKSVEIVDGVAVIHGSLRLDFDGRHIEWHLHLRLKLIDGKIKEVEHELV”, 1.36.
Regarding “HEHDQKSNKMSEILMELWKTGNEDWMDKLVDPNARTDIEVGDKRIENVGMEELHKWLFDHHRRIKGIKIIHRTMEVVGDKVTLHLELRFNGVRVEIIIRLIVIDGRVHSQHYEVRTE”, the protease stability score was found to be 0.59.
Next, “EEEEKMARKMIKDIIENFRTGDWDLMETLADPDVRLHFNGRDYHGREEFLKIERTRFEKVPNVRETERNVTWRNFDGRLELEIHTEHIINGVRIHVLLIFTTEKINGRWSMKSIEIHEK”: 0.704.
Next, “DEIENLIVKLAMDFIKDEITGDEERLRHLADPHTRHHIGDKHFHGMELIMKHWKTMADRFDHLEVRLEHVRVQGDKVDVHGHIIEEYNGKRIEHHIRLNVEIVDGRVTRYHVKID”: 1.32; “SEHDEELRHASEKLWHDILTGDWKSIKELADPNVRVIIWQGEKEINLHGREEVTRVIKEMGFKHTHIEHQSTINGRMIVDNHSNINGKRVHLHFVIEKINGRWFLHEMRIEFE”: 1.47; “DDETEYAREASEMWVKLLITGDEEIREEYIDPHAKMDQGEYEYHGREQVSRFSKKLIDTMGVKHFDIKSIEIQGDKVILFMHEHFENRRVDLIFYSRKFDGRWHYRRMEVIHR”: 0.543.
Next, “DKREEELHWAVELLIDIFRTGDERLLIELIDPHARSEVGDKTLHGRQHAEVEHRDWGLDRVETHIHDYKVQGNKLHLDMSTVVNGKDIKISFIAEKYNGRWHLKRIIIR”: 1.27; “SEVEEDTKRVLELLRESWKTGDEHSIKEMLDPNVKILVGDKEFHGMEDWHRIYKRFDYISIRHVRLKDSRHINGVVYLIIHIESEYRIGDKTTEKRYDASIINEKVDGRWIIRSIEIH”: 1.91; “DEDEKMMELIIKWLQNWMLTGDFDVLHDLVDPHAKYDIGDKEMHGREAQSFLRRRFDHIEHVHLRIDDVESQGDKLIVHGQNTVVGEINGKRENFKRKVHITLEKIDGQWFEREVRVR”: 1.51.
